Test results taken from patent US20130324477A1 (L OREAL, published 2013).

Target: T1, filaggrin-2 (FLG2) fragment identified as prey in the double-hybrid screens, corresponding to amino acids … (human, UniProt Q5D862 2-213)
T1 construct: range 2-213; Prey
T1 sequence (looked up): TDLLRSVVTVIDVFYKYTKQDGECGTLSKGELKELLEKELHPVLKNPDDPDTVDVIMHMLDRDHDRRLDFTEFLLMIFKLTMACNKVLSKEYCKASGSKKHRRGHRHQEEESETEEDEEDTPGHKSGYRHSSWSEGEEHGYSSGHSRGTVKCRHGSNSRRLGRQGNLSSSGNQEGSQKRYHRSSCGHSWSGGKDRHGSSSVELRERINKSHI
Test: supplementary double-hybrid experiments

binding result: binds
B1: N-terminal fragment of SASPase-28 (amino acids 11-86, SEQ ID No.: 16) (peptide)
chain: RQHAFVPEPFDGANVVPNLWLHSFEVINDLNHWDHITKLRFLKESLRGEALGVYNRLSPQDQGDYGTVKEALLKAFG
